Laboratory results from patent US20240352097A1 (NATIONAL SUN YAT SEN UNIVERSITY, published 2024).

T1: DENV-1 envelope (E) protein (Dengue virus serotype 1, UniProt P27909 281-680)
T1 chain: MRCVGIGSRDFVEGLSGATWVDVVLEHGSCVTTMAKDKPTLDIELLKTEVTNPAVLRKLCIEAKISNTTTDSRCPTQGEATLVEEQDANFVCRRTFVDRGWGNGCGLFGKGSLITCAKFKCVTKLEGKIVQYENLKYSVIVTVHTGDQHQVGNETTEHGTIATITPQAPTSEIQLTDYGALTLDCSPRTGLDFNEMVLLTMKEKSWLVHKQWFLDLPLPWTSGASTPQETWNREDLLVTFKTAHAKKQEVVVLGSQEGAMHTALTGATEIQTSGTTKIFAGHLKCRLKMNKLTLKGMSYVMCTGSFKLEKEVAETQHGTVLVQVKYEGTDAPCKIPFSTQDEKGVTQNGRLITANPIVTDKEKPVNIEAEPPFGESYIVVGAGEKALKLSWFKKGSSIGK

T2: DENV-3 envelope (E) protein (Dengue virus serotype 3, UniProt Q5UB51 281-678)
T2 chain: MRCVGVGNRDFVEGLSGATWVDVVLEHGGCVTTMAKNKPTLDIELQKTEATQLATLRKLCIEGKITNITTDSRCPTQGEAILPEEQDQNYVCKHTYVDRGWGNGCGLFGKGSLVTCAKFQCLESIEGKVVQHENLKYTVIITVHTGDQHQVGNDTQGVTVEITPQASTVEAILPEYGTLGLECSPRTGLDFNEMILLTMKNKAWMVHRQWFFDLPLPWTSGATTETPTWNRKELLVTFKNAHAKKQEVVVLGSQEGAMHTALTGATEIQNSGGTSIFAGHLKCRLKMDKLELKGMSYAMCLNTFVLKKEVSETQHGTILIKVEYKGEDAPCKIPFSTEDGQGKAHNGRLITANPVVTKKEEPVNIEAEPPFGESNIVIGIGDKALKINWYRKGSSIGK

T3: JEV envelope (E) protein (Japanese encephalitis virus, UniProt P0DOH8 295-699)
T3 chain: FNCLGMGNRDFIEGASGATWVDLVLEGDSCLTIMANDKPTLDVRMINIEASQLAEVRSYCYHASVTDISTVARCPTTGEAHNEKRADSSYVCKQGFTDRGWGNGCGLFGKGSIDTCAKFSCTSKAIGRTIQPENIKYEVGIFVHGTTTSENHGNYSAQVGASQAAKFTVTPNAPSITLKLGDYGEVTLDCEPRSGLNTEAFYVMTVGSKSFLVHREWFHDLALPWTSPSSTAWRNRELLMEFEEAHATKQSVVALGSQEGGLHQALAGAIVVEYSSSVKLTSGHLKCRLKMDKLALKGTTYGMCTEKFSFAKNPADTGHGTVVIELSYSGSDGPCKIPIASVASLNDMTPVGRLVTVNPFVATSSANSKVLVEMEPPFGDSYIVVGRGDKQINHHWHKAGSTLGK


How the values were obtained:
Test in all cases: cell-based or functional assay
[1] = target: T1, DENV-1 envelope (E) protein
[2] = target: DENV-2 envelope (E) protein (Dengue virus serotype 2, UniProt P29990 281-679)
[3] = target: T2, DENV-3 envelope (E) protein
[4] = target: DENV-4 envelope (E) protein (Dengue virus serotype 4, UniProt Q58HT7 280-679)
[5] = target: T3, JEV envelope (E) protein

Binder | neutralization (FRµNT50) [1] [µg/mL] | neutralization (FRµNT50) [2] | neutralization (FRµNT50) [3] [µg/mL] | neutralization (FRµNT50) [4] [µg/mL] | neutralization (FRµNT50) [5] [µg/mL]
K5-IgG1 (antibody, V domains shown) VH: EVQLLESGAEVKKPGSSVKVSCQASGDTFSNSDINWVRQAPGQGLEWMGGIIPAYDTTNYARTFQGRVAITADKSTSTVYMELSRLRSEDTAVYYCATDQRDYFGLGNHFNAQHFWGQGTLVTVSS VL: AIRMTQTPLSLSASVGDRVTITCRASQSISNYLNWYQQRPGKAPNLLIYTASNLHSGVPSRFSGSGSGTDFTLTISSLQPEDFATYYCQQSYSGGYTFGQGPSWEIK | 0.771 | 0.215 µg/mL | 1.21 | 1.51 | 0.682
K8b-IgG1 (antibody, V domains shown) VH: QVQLVQPGAEVVKPGASVKLSCKTSGYTFTSNWMHWVKQAPGQGLEWIGEIDPSDSYTNYNQNFQGKAKLTVDKSTSTAYMEVSSLRSDDTAVYYCARGSNPYYYAMDYWGQGTSVTVSS VL: EIVMMQSPLTLSLSPGERATLSCRASQSVSSNYLAWYQQRPGQAPRLLIYGVSSRATGVPVRFSGSGSGTDFTLTISRLEPEDFAVYYCQHYGGSLSWTFGQGTKVEIK | – | 0.207 µg/mL | – | – | –
K8b-F(ab) (Fab, V domains shown) VH: QVQLVQPGAEVVKPGASVKLSCKTSGYTFTSNWMHWVKQAPGQGLEWIGEIDPSDSYTNYNQNFQGKAKLTVDKSTSTAYMEVSSLRSDDTAVYYCARGSNPYYYAMDYWGQGTSVTVSS VL: EIVMMQSPLTLSLSPGERATLSCRASQSVSSNYLAWYQQRPGQAPRLLIYGVSSRATGVPVRFSGSGSGTDFTLTISRLEPEDFAVYYCQHYGGSLSWTFGQGTKVEIKR | – | 37 nM | – | – | –
